{"source": "paper PMC3087119", "about": "(Human Mutation, 2011)", "proteins": {"B1": {"name": "βA3-crystallin (natural protein)", "chain": "METQAEQQELETLPTTKMAQTNPTPGSLGPWKITIYDQENFQGKRMEFTSSCPNVSERSFDNVRSLKVESGAWIGYEHTSFCGQQFILERGEYPRWDAWSGSNAYHIERLMSFRPICSANHKESKMTIFEKENFIGRQWEISDDYPSLQAMGWFNNEVGSMKIQSGAWVCYQYPGYRGYQYILECDHHGGDYKHWREWGSHAQTSQIQSIRRIQQ"}}, "molecular_target": "the molecule itself", "assay": "static light scattering", "data": [{"protein": "B1", "values": [{"measurement": "stoichiometry N", "result": 2}]}]}
